According to US20230128688A1 (published 2023):

Experiments:
CD20 [1] = molecular target: T1, CD20 (UniProt P11836 1-297, limits assumed); experiment: Octet bio-layer interferometry, Protein A biosensors
T1 construct: Used in the Octet assay with Protein A biosensors
T1 sequence (looked up): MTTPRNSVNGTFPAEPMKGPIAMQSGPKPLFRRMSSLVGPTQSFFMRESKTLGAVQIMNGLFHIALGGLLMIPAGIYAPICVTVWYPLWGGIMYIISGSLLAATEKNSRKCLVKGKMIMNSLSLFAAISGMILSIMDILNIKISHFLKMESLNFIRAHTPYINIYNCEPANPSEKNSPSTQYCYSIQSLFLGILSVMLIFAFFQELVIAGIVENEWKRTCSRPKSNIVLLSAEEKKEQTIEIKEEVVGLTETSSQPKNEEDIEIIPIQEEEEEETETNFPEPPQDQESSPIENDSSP

CD20 [2] = molecular target: T1, CD20; experiment: Octet bio-layer interferometry, Protein A biosensors, 1:1 global fit

B1: III-1 (CD20×CD3; rituximab×SP34 scFv) (bispecific antibody)
chain 1: QVQLQQPGAELVKPGASVKMSCKASGYTFTSYNMHWVKQTPGRGLEWIGAIYPGNGDTSYNQKFKGKATLTADKSSSTAYMQLSSLTSEDSAVYYCARSTYYGGDWYFNVWGAGTTVTVSA
chain 2: QIVLSQSPAILSASPGEKVTMTCRASSSVSYIHWFQQKPGSSPKPWIYATSNLASGVPVRFSGSGSGTSYSLTISRVEAEDAATYYCQQWTSNPPTFGGGTKLEIK
chain 3: EVQLVESGGGLVQPGGSLKLSCAASGFTFNTYAMNWVRQAPGKGLEWVGRIRSKYNNYATYYADSVKGRFTISRDDSKNTLYLQMNSLRAEDTAVYYCVRHGNFGNSYVSWFAYWGQGTLVTVSSGGGGSGGGGSGGGGSQAVVTQEPSLTVSPGGTVTLTCGSSTGAVTTSNYANWVQQKPGQAPRGLIGGTNKRAPGVPARFSGSLLGGKAALTLSGAQPEDEAEYYCALWYSNLWVFGGGTKLTVLGSEQKLISEEDLGSGGGGSLPET
modifications: C-terminal LPETG sortase tag joined through the (G)5-PEG linker from I-53 to a lysine of rituximab
Kd (CD20 [1]): 0.75 nM | Kd (CD20 [2]): 1.06 nM
